31 sequences from the supplement of paper PMC9170038 can be followed below.

For the series, the system named is MS2 coat protein. The series is described as follows: apparent KD of MS2 coat protein; designed switch direction (-1 OFF switch, 1 ON switch): -1; higher = weaker reporter binding. Summed up: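 Transcription of designed RNA switches on Illumina chips was done by stalled E. coli RNA polymerase. SNAP-549-labelled MS2 coat protein was then titrated in doubling steps from 0.7 or 1.5 nM to 3 µM, with steps of 0.8–1.5 h at the lowest and 10–20 min at the highest concentration. The per-design median over clusters of curve-fitted normalised fluorescence is reported as apparent KD.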

Setting [1] is: input ligand: microRNA oligo, concentration not stated.
The mark [2] stands for this setting: Eterna round: R95, input ligand: microRNA oligo, concentration not stated.
The mark [3] stands for this setting: Eterna round: R95, input ligand: FMN 200 uM.
Setting [4] is: Eterna round: R95, input ligand: none.

For “GAUACACGUUCAGGAUAUCGCGCCCAAUUACACCUCUUCCGACGGACAUGAGGAUCACCCAUGUGCGAGAAGGGAACCAAAACU [Orquonbedi] (Eterna round: R96, puzzle: Exclusion NG 2)”, the “apparent KD of MS2 coat protein” value (input ligand: FMN 200 uM) turned out to be 13.6 nM, the “apparent KD of MS2 coat protein” value under setting [1] amounted to 13.2 nM and the “apparent KD of MS2 coat protein” value (input ligand: none) is 17.4 nM.

As for “GAUCAACAUGAGGAUCACCCAUGUGAGGAUAUGAUACUAUGUACUUCGGUACAUAGUAUCAGAAGGCAUGUAAA [Ex1-3: 78] (puzzle: Exclusion 1)”, the “apparent KD of MS2 coat protein” value under setting [2] was determined as 54.5 nM.

Regarding “GAUCAACAUGAGGAUCACCCAUGUGAGGAUAUGUAUCAUAGAUCUUCGGAUCUAUGAUACAGAAGGCAUGUGAA [Ex1-3: 101] (puzzle: Exclusion 1)”, under setting [2], the “apparent KD of MS2 coat protein” value was found to be 67.8 nM.

Consider “GAUCAACAUGAGGAUCACCCAUGUGAGGAUAUUGACUUGCUCACUUUCCCAUCAGAGUCGAGAAGGCGCAUCUG [1986#21] (Eterna round: R97, puzzle: Exclusion 1)”, for which the “apparent KD of MS2 coat protein” value came out at 28.1 nM (input ligand: FMN 200 uM) and 40.8 nM (input ligand: none).

Regarding “GAUCAGCUUGUGAGGAUAUCCGGGCUUAAAGGCUAGGAGAAGGUACAUGAGGAUCACCCAUGUAGAGUCCUGGG [Zageesen] (puzzle: Brourd's mod of Exclusion 4)”, under setting [2], the “apparent KD of MS2 coat protein” value turned out to be 50.4 nM.

With “GAUCAGGUAGGAUAUGCAGGAUCGGACUUGAGGAUCACCCAAGUGGCCAAAGUGCGUCCCGCAGAAGGGCCAAAAC [Biinxelace] (Eterna round: R97, puzzle: Exclusion 5)”, the “apparent KD of MS2 coat protein” value (input ligand: FMN 200 uM) was 439 nM and the “apparent KD of MS2 coat protein” value (input ligand: none) was found to be 618 nM.

Take “GAUCCACAUGAGGAUCACCCAUGUGAGGAUAUGAUACUAUGUACUUCGGUACAUAGUAUCAGAAGGCAUAUGAA [Ex1-3: 47] (Eterna round: R96, puzzle: Exclusion 1)”: the “apparent KD of MS2 coat protein” value by setting is: (input ligand: FMN 200 uM) 199 nM; under setting [1], 33.2 nM; (input ligand: none) 41.7 nM.

Turning to “GAUCCACAUGAGGAUCACCCAUGUGAGGAUAUGAUACUAUGUACUUCGGUACAUAGUAUCAGAAGGCAUAUGAA [Ex1-3: 47] (puzzle: Exclusion 1)”, under setting [2], the “apparent KD of MS2 coat protein” value was found to be 45.6 nM.

With “GAUCCGUUAGGAUAUGCGGGUGUCACCAGAGUGAUAGCCUCGCAGAAGGAACAUGAGGAUCACCCAUGUAGCAA [Eternabot (L1) Solution 92] (Eterna round: R97, puzzle: Exclusion 4)”, the “apparent KD of MS2 coat protein” value was 111 nM (input ligand: FMN 200 uM) and 38.6 nM (input ligand: none).

In the case of “GAUCGACAUGAGGAUCACCCAUGUCAGGAUAUCUACAUUGAAGCUUCGGCUUCAAUGUAGAGAAGGGACAUAAU [E1/13-B1] (Eterna round: R97, puzzle: Exclusion 1)”, the “apparent KD of MS2 coat protein” value by setting is: (input ligand: FMN 200 uM) 38.6 nM; (input ligand: none) 39.7 nM.

In the case of “GAUCGUUUAGAGGAUAUCAUGCUAAACAUUACAUGAGAAGGCUAGACAUGAGGAUCACCCAUGUAUGCUCGUGA [Exclusion 6 - 9:a] (puzzle: Exclusion 6)”, the “apparent KD of MS2 coat protein” value is 20.8 nM under setting [3], 14 nM under setting [2] and 14.8 nM under setting [4].

For “GAUGAGGUAGGAUAUACGAUAAUAUAGGGUAGAUAUAUAACACAUGAGGAUCACCCAUGUAGAAGGACCAGUAG [Mat - Exclusion 2 - Mod of my Tesla design - D66] (Eterna round: R96, puzzle: Exclusion 2)”, the “apparent KD of MS2 coat protein” value is 143 nM (input ligand: FMN 200 uM), 30.3 nM under setting [1] and 42.3 nM (input ligand: none).

Take “GAUGAGGUAGGAUAUACGAUAAUAUAGGGUAGAUAUAUAACACAUGAGGAUCACCCAUGUAGAAGGACCAGUAG [Mat - Exclusion 2 - Mod of my Tesla design - D66] (puzzle: Exclusion 2)”: under setting [2], the “apparent KD of MS2 coat protein” value turned out to be 33.4 nM.

As for “GAUGCUUCGGCAUCUACAAGCUUUUUGCUCGUCUUAUUAACAUGAGGAUCACCCAUGUACAAGAGACCUCAUGUAUU [Sensor v3 - turn-off variant 2 - 12] (puzzle: Sensor v3, turn-off variant 2)”, the “apparent KD of MS2 coat protein” value was found to be 125 nM under setting [3], 14.3 nM under setting [2] and 202 nM under setting [4].

Take “GAUUAACAUGAGGAUCACCCAUGUGAGGAUAUUGACUUGCUCACUUUCCCAUUAGAGUCGAGAAGGCGCAUCUU [1986#18] (Eterna round: R97, puzzle: Exclusion 1)”: the “apparent KD of MS2 coat protein” value (input ligand: FMN 200 uM) is 25.2 nM and the “apparent KD of MS2 coat protein” value (input ligand: none) turned out to be 28.6 nM.

Consider “GAUUAACAUGAGGAUCACCCAUGUGAGGAUAUUGACUUGCUCACUUUCCCAUUUGAGUCGAGAAGGCGCAUCUG [1986#22] (Eterna round: R97, puzzle: Exclusion 1)”, for which the “apparent KD of MS2 coat protein” value runs as follows: (input ligand: FMN 200 uM) 68.8 nM; (input ligand: none) 39 nM.

Turning to “GAUUACCUAACAAGUAAGCACAUGAGGAUCACCCAUGUGGAGGGUCAUGUCAUGCUCAAGAUGCUCGUCAUUUCUAG [Eternabot (L2) Solution 38] (Eterna round: R97, puzzle: Sensor, turn-off variant 1)”, the “apparent KD of MS2 coat protein” value came to 180 nM (input ligand: FMN 200 uM) and 193 nM (input ligand: none).

Consider “GAUUAUGCAAGCUUUAGGGACAUGAGGAUCACCCAUGUUCGUCUUAUUGAUCUAGGUACGCUGACGUACCUAGAUCU [JL-sv1-2.32 Brourd mod] (puzzle: Sensor v3, turn-off variant 1)”, for which the “apparent KD of MS2 coat protein” value under setting [3] worked out at 17 nM, the “apparent KD of MS2 coat protein” value under setting [2] was found to be 44.6 nM and the “apparent KD of MS2 coat protein” value under setting [4] was 14.8 nM.

Take “GAUUAUGCGAGCUUUAGGGACAUGAGGAUCACCCAUGUUCGUCUUAUUAAUCUAGGUGCACUGACAUACCUAAAUCU [JMF 87] (puzzle: Sensor v3, turn-off variant 1)”: the “apparent KD of MS2 coat protein” value is 20.7 nM under setting [3], 30 nM under setting [2] and 21.7 nM under setting [4].

Regarding “GAUUAUGCGAGCUUUAGGGACAUGAGGAUCACCCAUGUUCGUCUUAUUGGUCUGAAUGCACUGACAUACCUAAAUCU [JMF 76] (puzzle: Sensor v3, turn-off variant 1)”, the “apparent KD of MS2 coat protein” value under setting [3] was 18.7 nM, the “apparent KD of MS2 coat protein” value under setting [2] is 24.2 nM and the “apparent KD of MS2 coat protein” value under setting [4] was determined as 17.5 nM.

On to “GAUUAUGCGAGCUUUAGGGACAUGAGGAUCACCCAUGUUCGUCUUGUUGAUCUAGGUGCACUAACAUACCUAAAUCU [JMF 33] (puzzle: Sensor v3, turn-off variant 1)”, for which the “apparent KD of MS2 coat protein” value was 24.7 nM under setting [3], 28.7 nM under setting [2] and 22.6 nM under setting [4].

“GCAAAAUAUCAGGAUAUGACUAGCUGCGGCUAGUCAGAAGGGAUAACAUGAGGAUCACCCAUGUGAUAAAGUGU [JR_Ex6_Sub029] (Eterna round: R97, puzzle: Exclusion 6)”: the “apparent KD of MS2 coat protein” value is, setting by setting: (input ligand: FMN 200 uM) 66.7 nM; (input ligand: none) 60.4 nM.

With “GCAAAAUAUCAGGAUAUGACUUUUUGCGUUAAGUCAGAAGGGAUAACAUGAGGAUCACCCAUGUGAUAUAGUGU [JR_Ex6_Sub031] (Eterna round: R97, puzzle: Exclusion 6)”, the “apparent KD of MS2 coat protein” value runs as follows: (input ligand: FMN 200 uM) 261 nM; (input ligand: none) 177 nM.

On to “GCAAGCAGCUUGGAAUGAGACAUGAGGAUCACCCAUGUUCAGCACAAAGCCUUCAAUCAUCAGCUCGAAAGUAAAUG [Eternabot (L2) Solution 16] (Eterna round: R97, puzzle: Sensor, turn-off variant 1)”, for which the “apparent KD of MS2 coat protein” value by setting is: (input ligand: FMN 200 uM) 14.7 nM; (input ligand: none) 16.3 nM.

For the sequence “GCAAGCUUUUUGGUUUUCAACAUGAGGAUCACCCAUGUUCGUCUUGUGCUCGGGCUUGGGCGGUGUCCGGGUUUGGG [Default title] (Eterna round: R97, puzzle: Sensor, turn-off variant 1)”, the “apparent KD of MS2 coat protein” value was found to be 45.8 nM (input ligand: FMN 200 uM) and 48.5 nM (input ligand: none).

As for “GCAAGUUUUUUGUUUUUUAACAUGAGGAUCACCCAUGUAUUUUUAUAGUAUGUGUGAUUAAGAUCUUGUGGUCUUAG [JR_SV3TOV1_Sub101] (puzzle: Sensor v3, turn-off variant 1)”, the “apparent KD of MS2 coat protein” value under setting [3] was found to be 59.1 nM, the “apparent KD of MS2 coat protein” value under setting [2] stood at 92.2 nM and the “apparent KD of MS2 coat protein” value under setting [4] worked out at 62.9 nM.

In the case of “GCACGGAAUGCAGGAUAUCUGUGCGAUUAGCUCAGAGAAGGGCACAUGAGGAUCACCCAUGUGUAUAAAACACAAAAUCCGUGC [Eli exng1 - 067] (Eterna round: R96, puzzle: Exclusion NG 1)”, the “apparent KD of MS2 coat protein” value runs as follows: (input ligand: FMN 200 uM) 13.5 nM; under setting [1], 7.71 nM; (input ligand: none) 13.8 nM.

With “GCACGGAGUGUAGGAUAUCUGUGCGAUUAGCUCAGAGAAGGACACAUGAGGAUCACCCAUGUGUUCCACGGAAACGUACCGUGC [Eli exng1 - 050] (Eterna round: R96, puzzle: Exclusion NG 1)”, the “apparent KD of MS2 coat protein” value (input ligand: FMN 200 uM) turned out to be 11.2 nM, the “apparent KD of MS2 coat protein” value under setting [1] was found to be 8.87 nM and the “apparent KD of MS2 coat protein” value (input ligand: none) was 12.5 nM.

As for “GCACGGAGUGUAGGAUAUCUGUGCGAUUAGCUCAGAGAAGGACACAUGAGGAUCACCCAUGUGUUCCUCGGAAACGAACCGUGC [Eli exng1 - 051] (Eterna round: R96, puzzle: Exclusion NG 1)”, the “apparent KD of MS2 coat protein” value stood at 32.2 nM (input ligand: FMN 200 uM), 10.9 nM under setting [1] and 14 nM (input ligand: none).

For the sequence “GCACGGAUGGUAGGAUAUCAGUGCGAUUAGCUCUGAGAAGGACCACAUGAGGAUCACCCAUGUACCUCAAUUAUCCUUCCGUGC [Eli exng1 - 022] (Eterna round: R96, puzzle: Exclusion NG 1)”, the “apparent KD of MS2 coat protein” value by setting is: (input ligand: FMN 200 uM) 13.8 nM; under setting [1], 11.3 nM; (input ligand: none) 17.7 nM.

As to “GCACGGGUGGUAGGAUAUCCUUGCGAUUAGCAAGGAGAAGGACCACAUGAGGAUCACCCAUGUACCUCAAUUAUCCUUCCGUGC [Eli exng1 - 024] (Eterna round: R96, puzzle: Exclusion NG 1)”, the “apparent KD of MS2 coat protein” value reads like this: (input ligand: FMN 200 uM) 16.8 nM; under setting [1], 10.4 nM; (input ligand: none) 14.5 nM.
